Substrate: O=[N+]([O-])c1ccc(OP(=O)(O)O)cc1
Assay: chromogenic phosphatase assay, A400
Type: biochemical, Thermosynechococcus vestitus
Details: 50 mM Tris-HCl pH 8.3, 50 mM NaCl, 1 mM DTT, 2 mM MnCl2, 30 °C, pNPP 0.1-10 mM
Source text: chromogenic phosphatase assay, A400 on tPphA

Protein	Km [mM]	kcat [s⁻¹]	kcat/Km [M⁻¹ s⁻¹]
tPphA (Thermosynechococcus vestitus BP-1; R13N) (protein) MDVAGLTDCGLINKSNQDAFYIDEKHQRFFIVADGMGGHAGGEEASRLAVDHIRQYLETHLEDLQHDPVTLLRQAFLAANHAIVEQQRQNSARADMGTTAVVILLDEKGDRAWCAHVGDSRIYRWRKDQLQQITSDHTWIAQAVQLGSLTIEQARQHPWRHVLSQCLGREDLSQIDIQPIDLEPGDRLLLCSDGLTEELTDDVISIYLSEPNVQKAAAALVDAAKTHGGRDNVTVVVISV	4.73 ± 0.53	0.81 ± 0.04	171 ± 8
tPphA (Thermosynechococcus vestitus BP-1) (protein) MDVAGLTDCGLIRKSNQDAFYIDEKHQRFFIVADGMGGHAGGEEASRLAVDHIRQYLETHLEDLQHDPVTLLRQAFLAANHAIVEQQRQNSARADMGTTAVVILLDEKGDRAWCAHVGDSRIYRWRKDQLQQITSDHTWIAQAVQLGSLTIEQARQHPWRHVLSQCLGREDLSQIDIQPIDLEPGDRLLLCSDGLTEELTDDVISIYLSEPNVQKAAAALVDAAKTHGGRDNVTVVVISV	1.06 ± 0.05	2.25 ± 0.1	2120 ± 94
tPphA (Thermosynechococcus vestitus BP-1; R13A) (protein) MDVAGLTDCGLIAKSNQDAFYIDEKHQRFFIVADGMGGHAGGEEASRLAVDHIRQYLETHLEDLQHDPVTLLRQAFLAANHAIVEQQRQNSARADMGTTAVVILLDEKGDRAWCAHVGDSRIYRWRKDQLQQITSDHTWIAQAVQLGSLTIEQARQHPWRHVLSQCLGREDLSQIDIQPIDLEPGDRLLLCSDGLTEELTDDVISIYLSEPNVQKAAAALVDAAKTHGGRDNVTVVVISV	5.11 ± 0.23	1.56 ± 0.03	305 ± 6
tPphA (Thermosynechococcus vestitus BP-1; R13H) (protein) MDVAGLTDCGLIHKSNQDAFYIDEKHQRFFIVADGMGGHAGGEEASRLAVDHIRQYLETHLEDLQHDPVTLLRQAFLAANHAIVEQQRQNSARADMGTTAVVILLDEKGDRAWCAHVGDSRIYRWRKDQLQQITSDHTWIAQAVQLGSLTIEQARQHPWRHVLSQCLGREDLSQIDIQPIDLEPGDRLLLCSDGLTEELTDDVISIYLSEPNVQKAAAALVDAAKTHGGRDNVTVVVISV	3.30 ± 0.17	0.64 ± 0.01	194 ± 3
tPphA (Thermosynechococcus vestitus BP-1; R13Q) (protein) MDVAGLTDCGLIQKSNQDAFYIDEKHQRFFIVADGMGGHAGGEEASRLAVDHIRQYLETHLEDLQHDPVTLLRQAFLAANHAIVEQQRQNSARADMGTTAVVILLDEKGDRAWCAHVGDSRIYRWRKDQLQQITSDHTWIAQAVQLGSLTIEQARQHPWRHVLSQCLGREDLSQIDIQPIDLEPGDRLLLCSDGLTEELTDDVISIYLSEPNVQKAAAALVDAAKTHGGRDNVTVVVISV	4.06 ± 0.21	0.5 ± 0.01	123 ± 2
tPphA (Thermosynechococcus vestitus BP-1; R13S) (protein) MDVAGLTDCGLISKSNQDAFYIDEKHQRFFIVADGMGGHAGGEEASRLAVDHIRQYLETHLEDLQHDPVTLLRQAFLAANHAIVEQQRQNSARADMGTTAVVILLDEKGDRAWCAHVGDSRIYRWRKDQLQQITSDHTWIAQAVQLGSLTIEQARQHPWRHVLSQCLGREDLSQIDIQPIDLEPGDRLLLCSDGLTEELTDDVISIYLSEPNVQKAAAALVDAAKTHGGRDNVTVVVISV	3.85 ± 0.32	1.06 ± 0.04	275 ± 10
tPphA (Thermosynechococcus vestitus BP-1; R13K) (protein) MDVAGLTDCGLIKKSNQDAFYIDEKHQRFFIVADGMGGHAGGEEASRLAVDHIRQYLETHLEDLQHDPVTLLRQAFLAANHAIVEQQRQNSARADMGTTAVVILLDEKGDRAWCAHVGDSRIYRWRKDQLQQITSDHTWIAQAVQLGSLTIEQARQHPWRHVLSQCLGREDLSQIDIQPIDLEPGDRLLLCSDGLTEELTDDVISIYLSEPNVQKAAAALVDAAKTHGGRDNVTVVVISV	1.39 ± 0.10	1.22 ± 0.03	878 ± 21
tPphA (Thermosynechococcus vestitus BP-1; R13G) (protein) MDVAGLTDCGLIGKSNQDAFYIDEKHQRFFIVADGMGGHAGGEEASRLAVDHIRQYLETHLEDLQHDPVTLLRQAFLAANHAIVEQQRQNSARADMGTTAVVILLDEKGDRAWCAHVGDSRIYRWRKDQLQQITSDHTWIAQAVQLGSLTIEQARQHPWRHVLSQCLGREDLSQIDIQPIDLEPGDRLLLCSDGLTEELTDDVISIYLSEPNVQKAAAALVDAAKTHGGRDNVTVVVISV	3.58 ± 0.22	1.17 ± 0.03	327 ± 8
tPphA (Thermosynechococcus vestitus BP-1; R13Y) (protein) MDVAGLTDCGLIYKSNQDAFYIDEKHQRFFIVADGMGGHAGGEEASRLAVDHIRQYLETHLEDLQHDPVTLLRQAFLAANHAIVEQQRQNSARADMGTTAVVILLDEKGDRAWCAHVGDSRIYRWRKDQLQQITSDHTWIAQAVQLGSLTIEQARQHPWRHVLSQCLGREDLSQIDIQPIDLEPGDRLLLCSDGLTEELTDDVISIYLSEPNVQKAAAALVDAAKTHGGRDNVTVVVISV	4.31 ± 0.28	0.42 ± 0.01	97 ± 2
tPphA (Thermosynechococcus vestitus BP-1; R13C) (protein) MDVAGLTDCGLICKSNQDAFYIDEKHQRFFIVADGMGGHAGGEEASRLAVDHIRQYLETHLEDLQHDPVTLLRQAFLAANHAIVEQQRQNSARADMGTTAVVILLDEKGDRAWCAHVGDSRIYRWRKDQLQQITSDHTWIAQAVQLGSLTIEQARQHPWRHVLSQCLGREDLSQIDIQPIDLEPGDRLLLCSDGLTEELTDDVISIYLSEPNVQKAAAALVDAAKTHGGRDNVTVVVISV	4.27 ± 0.39	0.79 ± 0.01	185 ± 2
tPphA (Thermosynechococcus vestitus BP-1; R13P) (protein) MDVAGLTDCGLIPKSNQDAFYIDEKHQRFFIVADGMGGHAGGEEASRLAVDHIRQYLETHLEDLQHDPVTLLRQAFLAANHAIVEQQRQNSARADMGTTAVVILLDEKGDRAWCAHVGDSRIYRWRKDQLQQITSDHTWIAQAVQLGSLTIEQARQHPWRHVLSQCLGREDLSQIDIQPIDLEPGDRLLLCSDGLTEELTDDVISIYLSEPNVQKAAAALVDAAKTHGGRDNVTVVVISV	4.77 ± 0.17	1.01 ± 0.02	212 ± 4
